In IntAct's records for PubMed 21293379:

Molecular target: nsd2_human NSD2 (UniProt O96028)
Chain of UniProt O96028 (O96028 whole entry): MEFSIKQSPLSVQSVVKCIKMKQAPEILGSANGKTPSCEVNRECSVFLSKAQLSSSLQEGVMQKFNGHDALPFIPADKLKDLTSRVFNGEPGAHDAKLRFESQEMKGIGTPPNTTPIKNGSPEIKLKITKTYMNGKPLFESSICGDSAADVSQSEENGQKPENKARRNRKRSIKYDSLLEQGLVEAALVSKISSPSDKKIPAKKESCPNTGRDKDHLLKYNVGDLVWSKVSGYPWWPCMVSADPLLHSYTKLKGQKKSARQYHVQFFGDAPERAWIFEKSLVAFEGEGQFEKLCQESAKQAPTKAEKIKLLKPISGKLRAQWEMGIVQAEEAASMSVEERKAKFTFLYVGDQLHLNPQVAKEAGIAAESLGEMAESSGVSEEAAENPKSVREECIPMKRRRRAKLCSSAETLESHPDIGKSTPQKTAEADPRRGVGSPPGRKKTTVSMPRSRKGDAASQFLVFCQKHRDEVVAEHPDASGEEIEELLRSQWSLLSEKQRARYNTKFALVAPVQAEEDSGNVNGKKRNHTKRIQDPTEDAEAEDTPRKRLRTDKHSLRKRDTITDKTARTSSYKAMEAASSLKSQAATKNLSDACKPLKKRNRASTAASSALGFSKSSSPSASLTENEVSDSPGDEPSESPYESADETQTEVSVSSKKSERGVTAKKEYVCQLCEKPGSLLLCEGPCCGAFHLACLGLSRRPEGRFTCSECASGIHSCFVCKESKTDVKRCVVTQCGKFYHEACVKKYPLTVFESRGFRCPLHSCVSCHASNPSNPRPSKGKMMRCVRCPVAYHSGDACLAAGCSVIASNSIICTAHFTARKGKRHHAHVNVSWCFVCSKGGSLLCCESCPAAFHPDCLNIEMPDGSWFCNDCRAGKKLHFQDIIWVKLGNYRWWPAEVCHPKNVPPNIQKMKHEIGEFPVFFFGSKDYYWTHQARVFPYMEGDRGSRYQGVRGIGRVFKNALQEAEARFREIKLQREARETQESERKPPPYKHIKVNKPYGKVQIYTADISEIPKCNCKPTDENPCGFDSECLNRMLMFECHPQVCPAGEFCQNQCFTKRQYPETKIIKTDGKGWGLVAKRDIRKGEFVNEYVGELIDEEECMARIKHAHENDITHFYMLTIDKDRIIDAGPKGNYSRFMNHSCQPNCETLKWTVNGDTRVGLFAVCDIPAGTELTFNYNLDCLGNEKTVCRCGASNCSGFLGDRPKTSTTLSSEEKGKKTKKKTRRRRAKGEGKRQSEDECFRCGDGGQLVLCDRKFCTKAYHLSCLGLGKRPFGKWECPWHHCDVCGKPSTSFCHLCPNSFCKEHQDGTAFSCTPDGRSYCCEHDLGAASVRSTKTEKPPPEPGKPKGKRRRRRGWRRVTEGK

effect of a mutation on the interaction: disrupting interaction
Substance: Mediator of DNA damage checkpoint protein 1 (Homo sapiens), Q14676 K1936M
